Results from patent publication US20190328867A1 (EMORY UNIVERSITY, published 2019).

Biological target: T1, varicella-zoster virus glycoprotein H (varicella-zoster virus, UniProt P09260 18-841, limits assumed)
T1 sequence (looked up): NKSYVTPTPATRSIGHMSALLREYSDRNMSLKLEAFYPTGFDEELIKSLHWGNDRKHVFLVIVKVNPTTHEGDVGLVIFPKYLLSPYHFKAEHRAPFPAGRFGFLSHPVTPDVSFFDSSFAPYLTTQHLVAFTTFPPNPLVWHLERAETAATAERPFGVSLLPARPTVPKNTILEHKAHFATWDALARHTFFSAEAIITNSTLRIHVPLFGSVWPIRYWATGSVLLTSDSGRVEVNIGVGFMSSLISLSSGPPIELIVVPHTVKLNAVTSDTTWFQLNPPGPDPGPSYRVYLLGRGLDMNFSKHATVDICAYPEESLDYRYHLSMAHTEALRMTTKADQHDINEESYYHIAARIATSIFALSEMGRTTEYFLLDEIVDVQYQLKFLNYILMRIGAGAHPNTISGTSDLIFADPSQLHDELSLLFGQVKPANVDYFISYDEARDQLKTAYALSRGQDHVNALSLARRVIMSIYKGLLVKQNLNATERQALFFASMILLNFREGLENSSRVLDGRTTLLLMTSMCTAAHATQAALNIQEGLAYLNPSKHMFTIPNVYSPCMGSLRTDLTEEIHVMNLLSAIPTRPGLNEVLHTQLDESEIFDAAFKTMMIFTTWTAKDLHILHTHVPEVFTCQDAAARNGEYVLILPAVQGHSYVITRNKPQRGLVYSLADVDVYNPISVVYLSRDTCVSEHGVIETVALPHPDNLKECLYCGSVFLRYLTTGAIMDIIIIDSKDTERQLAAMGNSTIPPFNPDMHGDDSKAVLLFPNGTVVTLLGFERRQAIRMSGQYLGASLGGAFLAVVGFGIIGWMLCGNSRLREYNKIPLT
Experiment: cell-based or functional assay

B1: 302-1G9 (antibody, IgG1, V domains shown)
VH: QVQLVQSGAEVKKPGASVKVSCEAFGYTFSNYGFTWVRQAPGQGLEWMGWISASNANTKYGQKFRGRVTLTTDTSTSTAYMELRNLGYDDTAMYYCARDRGGSLAMVVGLDHWGQGTLVTVSS
VL: DIQMTQSPTSLSASVGDRVTITCRASQSIGGYLNWYQQNPGKAPKLLIYAASTLQRGVPSRFSGGGSGTDFTLTITSLQPEDFATYYCQQCYSAELTFGGGTKVEIK
In vitro neutralization IC50 (with complement): 0.06 µg/mL
In vitro neutralization IC50 (without complement): 0.09 µg/mL

B2: RM-2D6 (antibody, IgG1, V domains shown)
VH: EVQLVESGGGVVQPGRSLRLSCAASGFMFSSYGMHWVRQAPGKGLEWVAAVSHDGTNDLYADSVKGRFSISRDNSKNTLYLQMNSLRAEDTAVYYCAKTSWARFLEWTFDYWGQGTLVTVSS
VL: DIQMTQSPSSLSASVGDRVTITCRASQSINRYLNWYQQKPGKAPKLLIYGASSLQSGVPLRFSGSGSGTDFTLTISSLQPEDFATYYCQQSHSTPTFGQGTRLEIK
In vitro neutralization IC50 (with complement): 0.03 µg/mL
In vitro neutralization IC50 (without complement): 0.23 µg/mL
